We go through three substances from paper PMC6795518.

Assay [1] addresses TcdB2-TccC3 from Photorhabdus luminescens (Pl-TcdB2-TccC3) (Photorhabdus luminescens) (UniProt Q8GF99). Kind of assay: BLI. Background: In BLI a coated tip is dipped into the sample, and binding shifts an interference pattern.
In assay [2] the target is XptA1 from Xenorhabdus nematophila (Xn-XptA1) (Xenorhabdus nematophila). Kind of assay: cryo-EM structure.

In assay [1], “TcdA1 from Photorhabdus luminescens (Pl-TcdA1), Q9RN43 1-2516” registered an equilibrium dissociation constant (Kd) of 0.63 nM.

“TcdA4 from Morganella morganii (Mm-TcdA4) (natural protein)” displayed a Kd in assay [1] of 11.3 nM.

“XptA1 from Xenorhabdus nematophila (Xn-XptA1) (natural protein)” displayed a stoichiometry N in assay [2] of 5. This substance had a Kd in assay [1] of 1.99 nM.

Usually Kd stands for the concentration at which binding is half-saturated. Higher therefore signals a looser complex. Usually stoichiometry N stands for the number of molecules, sites or subunits per partner or assembly.
